The data set concerns the target T1, beta-lactoglobulin B (β-LG) (Bos taurus? (cow's milk), UniProt P02754 17-178).
T1 sequence: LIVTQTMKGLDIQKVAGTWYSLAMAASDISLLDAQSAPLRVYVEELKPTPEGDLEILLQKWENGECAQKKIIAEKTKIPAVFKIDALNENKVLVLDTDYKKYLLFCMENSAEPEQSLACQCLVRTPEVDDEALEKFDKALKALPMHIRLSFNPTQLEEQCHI
Kind of data set: electrochemical folding-based aptasensor (DPV, MB signal-on); PBS-based buffer without MgCl2; 45 min incubation; linear 0.1-10 ng/mL, LOD 0.09 ng/mL; no Kd in the material; Measurement in PBS-based buffer without MgCl2 (wash buffer 0.1 M PBS, 150 mM NaCl, pH 7.4), 45 min; aptamer immobilized at 1 µM in 50 mM Tris, 150 mM NaCl, 2 mM MgCl2, pH 7.4; temperature not stated. The note with it: protein: commercial; chain copies: 2; label: methylene blue (3').

Here are results for one molecule from article PMC7219239, “Folding-Based Electrochemical Aptasensor for the Determination of β-Lactoglobulin on Poly-L-Lysine Modified Graphite Electrodes”.

B1: anti-β-LG aptamer, thiolated, MB-tagged (ssDNA)
DNA: CGACGATCGGACCGCAGTACCCACCCACCAGCCCCAACATCATGCCCATCCGTGTGTG
modifications: 5'-thiol (HS); 3'-methylene blue
As to B1, the binding result is recorded as “binds”.
